Test results published in US20170313764A1 (ACADEMISCH MEDISCH CENTRUM, published 2017).

How the values were obtained:
[1] = target: E1E2 of HCV isolate H77 with single mutation Y527A (Hepatitis C virus genotype 1a, strain …, UniProt P27958 192-383; P27958 384-746); assay: ELISA, GNA-captured E1E2 lysate; EC50 wild type / EC50 mutant
[2] = target: E1E2 of HCV isolate H77 with single mutation T526A (Hepatitis C virus genotype 1a, strain …, UniProt P27958 192-383; P27958 384-746); assay: as above
[3] = target: E1E2 of HCV isolate H77 with single mutation A439G (Hepatitis C virus genotype 1a, strain …, UniProt P27958 192-383; P27958 384-746); assay: as above
[4] = target: E1E2 of HCV isolate H77 with single mutation G530A (Hepatitis C virus genotype 1a, strain …, UniProt P27958 192-383; P27958 384-746); assay: as above
[5] = target: E1E2 of HCV isolate H77 with single mutation Y485A (Hepatitis C virus genotype 1a, strain …, UniProt P27958 192-383; P27958 384-746); assay: as above
[6] = target: E1E2 of HCV isolate H77 with single mutation G436A (Hepatitis C virus genotype 1a, strain …, UniProt P27958 192-383; P27958 384-746); assay: as above
[7] = target: E1E2 of HCV isolate H77 with single mutation N415A (Hepatitis C virus genotype 1a, strain …, UniProt P27958 192-383; P27958 384-746); assay: as above
[8] = target: E1E2 of HCV isolate H77 with single mutation R657A (Hepatitis C virus genotype 1a, strain …, UniProt P27958 192-383; P27958 384-746); assay: as above
[9] = target: E1E2 of HCV isolate H77 with single mutation T435A (Hepatitis C virus genotype 1a, strain …, UniProt P27958 192-383; P27958 384-746); assay: as above
[10] = target: E1E2 of HCV isolate H77 with single mutation D698A (Hepatitis C virus genotype 1a, strain …, UniProt P27958 192-383; P27958 384-746); assay: as above
[11] = target: E1E2 of HCV isolate H77 with single mutation F442A (Hepatitis C virus genotype 1a, strain …, UniProt P27958 192-383; P27958 384-746); assay: as above
[12] = target: E1E2 of HCV isolate H77 with single mutation W616A (Hepatitis C virus genotype 1a, strain …, UniProt P27958 192-383; P27958 384-746); assay: as above
[13] = target: E1E2 of HCV isolate H77 with single mutation L441A (Hepatitis C virus genotype 1a, strain …, UniProt P27958 192-383; P27958 384-746); assay: as above
[14] = target: E1E2 of HCV isolate H77 with single mutation S424A (Hepatitis C virus genotype 1a, strain …, UniProt P27958 192-383; P27958 384-746); assay: as above
[15] = target: E1E2 of HCV isolate H77 with single mutation W529A (Hepatitis C virus genotype 1a, strain …, UniProt P27958 192-383; P27958 384-746); assay: as above
[16] = target: E1E2 of HCV isolate H77 with single mutation D535A (Hepatitis C virus genotype 1a, strain …, UniProt P27958 192-383; P27958 384-746); assay: as above
[17] = target: E1E2 of HCV isolate H77 with single mutation Y443A (Hepatitis C virus genotype 1a, strain …, UniProt P27958 192-383; P27958 384-746); assay: as above
[18] = target: E1E2 of HCV isolate AMS.4d.20875969 (genotype 4d) (Hepatitis C virus genotype 4d); assay: cell-based or functional assay
[19] = target: E1E2 of HCV isolate UKN4.11.1 (genotype 4) (Hepatitis C virus genotype 4); assay: cell-based or functional assay
[20] = target: E1E2 of HCV isolate AMS.3a.21071213 (genotype 3a) (Hepatitis C virus genotype 3a); assay: cell-based or functional assay
[21] = target: E1E2 of HCV isolate H77 (genotype 1a), wild type (Hepatitis C virus genotype 1a, strain …, UniProt P27958 192-383; P27958 384-746); assay: cell-based or functional assay

Row | Binder | relative binding, mutant vs wild type [1] | relative binding, mutant vs wild type [2] | relative binding, mutant vs wild type [3] | relative binding, mutant vs wild type [4] | relative binding, mutant vs wild type [5] | relative binding, mutant vs wild type [6] | relative binding, mutant vs wild type [7] | relative binding, mutant vs wild type [8] | relative binding, mutant vs wild type [9] | relative binding, mutant vs wild type [10] | relative binding, mutant vs wild type [11] | relative binding, mutant vs wild type [12] | relative binding, mutant vs wild type [13] | relative binding, mutant vs wild type [14] | relative binding, mutant vs wild type [15] | relative binding, mutant vs wild type [16] | relative binding, mutant vs wild type [17] | IC50, HCVpp neutralization [18] | IC50, HCVpp neutralization [19] | IC50, HCVpp neutralization [20] | further results
1 | AT12-007 (antibody, V domains shown) VH: QVQLEQSGAEVKKPGASVKVSCKVSGYTLTELSMHWVRQAPGKGLEWMGSFDPADGERLYAQKFQGRVIMSEDTSTDTAYMELSSLRSEDAAVYYCATAPRMTMFGVIMALDSWGQGTLVTVSS VL: DIQMTQSPSTLSASLGDRVTITCRASQNINKYLAWYQQKPGKAPKLLIYKASNLQSGVPSRFSGSGSGTDFILTISSLQPDDFATYYCQQYTTYSAWTFGQGTNVDIKR | 24% | 31% | 67% | < 10% | 114% | 35% | 115% | 116% | 84% | 103% | < 10% | < 10% | < 10% | 34% | < 10% | 15% | < 10% |  |  |  | 
2 | AT12-010 (antibody, V domains shown) VH: QLQLVQSGAEVKKPGSSVKVSCKASGGTFTSYAINWVRQVPGQGLEWMGEISPVFGTTHYAQKFQGRLKITADESADTAYMELSSLRSDDTAVYYCGRDRAPRLCSGGRCHSPPDHWGQGTLVTVSS VL: DIQMTQSPSSVSASVGDRVTITCRASQGFGNWLAWYQQKPGRAPKLLIFGASTLQNGVPSRFSGSASGTDFTLTITSLQPEDFATYYCLQTNTFPYTFGQGTKVEIKR | 19% | 29% | 45% | < 10% | 107% | < 10% | 117% | 99% | 47% | 86% | < 10% | < 10% | < 10% | 16% | < 10% | 5% | < 10% |  |  |  | 
3 | AT15-009 (antibody, V domains shown) VH: QVLLVQSGAEVKKPGSSVKVSCKASGGTFSTYAISWLRQAPGQGPEWMGGIVPMFGITNYAQHFQGRITITADKSTSTAYMELSSLGSEDTAVYFCARDLRSGGTFFSRGFDLWGPGTKVTVSS VL: EIVLTQSPGTLSLSPGERATLSCRASQSVSSSFLTWYQQKPGQAPRLLIFDASTRATGVPDRFSGSGSGTDFTLTISRLEPEDFGVYYCQQFDSSPTFGGGTKVEIK |  |  |  |  |  |  |  |  |  |  |  |  |  |  |  |  |  | 2.26 µg/mL | 1.33 µg/mL | 0.71 µg/mL | IC50, HCVpp neutralization [21]: 0.14 µg/mL
4 | AT15-012 (antibody, V domains shown, also called AT15-12) VH: QVQLVQSGAEVKKPGSSVKVSCKASGGNFNIFPITWVRQAPGQGLEWMGEIIPMLGTPEYAQKFQGRVTITADKSTGTAFMELSSLRSEDTAVYYCARTETTLPGTLFFVYYFHFWGQGTPVTVSS VL: EIVMTQSPVTLSVSPGERAILSCRASQSVSSSLAWYQQKPGQAPRLLIYGASTRATGVPARFSGSGSGTEFTLTISSVQSEDYAIYFCQQYNDRPPWTFGQGTKVEIK |  |  |  |  |  |  |  |  |  |  |  |  |  |  |  |  |  | 1.16 µg/mL | 1.66 µg/mL | 0.9 µg/mL | IC50, HCVpp neutralization [21]: 0.26 µg/mL
